Experimental data as given in the supplement of paper PMC10567573.

B1: SPSB4 (parent)
chain: LDMDEGTLSFIVDGQYLGVAFRGL

Variants of: B1
Experiment: protein stability index of a GFP-peptide fusion (GPS, HEK-293T) (PSI 1-6); higher = more stable
Conditions: c terminus: a fixed tail appended
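Note: lentivirally expressed fusions sorted by FACS into six bins by GFP to DsRed ratio, PSI derived from sequencing read proportions per bin multiplied by bin number.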

Variant	protein stability index
LDMDEGTLSFIVDGQYLKVAFRGL [G18K]	1.8
LDMDEGTLSFIVDGQYLCVAFRGL [G18C]	2.03
LDMDEGTLSFIVDGQYLFVAFRGL [G18F]	2.44
LDMDEGTLSFIVDGQYLHVAFRGL [G18H]	2.93
LDMDEGTLSFIVDGQYLYVAFRGL [G18Y]	3.25
LDMDEGTLSFIVDGQYLDVAFRGL [G18D]	2.55
LDMDEGTLSFIVDGQYLEVAFRGL [G18E]	2.06
LDMDEGTLSFIVDGQYLSVAFRGL [G18S]	2.8
LDMDEGTLSFIVDGQYLPVAFRGL [G18P]	1.26
LDMDEGTLSFIVDGQYLNVAFRGL [G18N]	2.19
LDMDEGTLSFIVDGQYLIVAFRGL [G18I]	4.2
LDMDEGTLSFIVDGQYLVVAFRGL [G18V]	2.45
LDMDEGTLSFIVDGQYLWVAFRGL [G18W]	1.91
LDMDEGTLSFIVDGQYLLVAFRGL [G18L]	2.31
LDMDEGTLSFIVDGQYLRVAFRGL [G18R]	2.38
LDMDEGTLSFIVDGQYLMVAFRGL [G18M]	2.85
LDMDEGTLSFIVDGQYLTVAFRGL [G18T]	3.06
LDMDEGTLSFIVDGQYLAVAFRGL [G18A]	2.82
LDMDEGTLSFIVDGQYLQVAFRGL [G18Q]	1.42
LDMDEGTLSFIVDGQYLGVAFRHL [G23H]	2.5
LDMDEGTLSFIVDGQYLGVAFRFL [G23F]	1.96
LDMDEGTLSFIVDGQYLGVAFREL [G23E]	2.42
LDMDEGTLSFIVDGQYLGVAFRCL [G23C]	1.86
LDMDEGTLSFIVDGQYLGVAFRAL [G23A]	1.31

Variant	protein stability index
LDMDEGTLSFIVDGQYLGVAFRDL [G23D]	1.84
LDMDEGTLSFIVDGQYWGVAFRGL [L17W]	2.72
LDMDEGTLSFIVDGQYFGVAFRGL [L17F]	3.76
LDMDEGTLSFIVDGQYQGVAFRGL [L17Q]	2.09
LDMDEGTLSFIVDGQYMGVAFRGL [L17M]	1.67
LDMDEGTLSFIVDGQYIGVAFRGL [L17I]	3.23
LDMDEGTLSFIVDGQYNGVAFRGL [L17N]	1.51
LDMDEGTLSFIVDGQYDGVAFRGL [L17D]	2.29
LDMDEGTLSFIVDGQYGGVAFRGL [L17G]	1.47
LDMDEGTLSFIVDGQYVGVAFRGL [L17V]	3.15
LDMDEGTLSFIVDGQYHGVAFRGL [L17H]	1.86
LDMDEGTLSFIVDGQYEGVAFRGL [L17E]	1.79
LDMDEGTLSFIVDGQYPGVAFRGL [L17P]	2.51
LDMDEGTLSFIVDGQYAGVAFRGL [L17A]	2.15
LDMDEGTLSFIVDGQYYGVAFRGL [L17Y]	2.55
LDMDEGTLSFIVDGQYSGVAFRGL [L17S]	1.86
LDMDEGTLSFIVDGQYRGVAFRGL [L17R]	2.03
LDMDEGTLSFIVDGQYKGVAFRGL [L17K]	1.87
LDMDEGTLSFIVDGQYTGVAFRGL [L17T]	1.69
LDMDEGTLSFIVVGQYLGVAFRGL [D13V]	2.9
LDMDEGTLSFIVCGQYLGVAFRGL [D13C]	3.49
LDMDEGTLSFIVMGQYLGVAFRGL [D13M]	2.37
LDMDEGTLSFIVYGQYLGVAFRGL [D13Y]	3.11
LDMDEGTLSFIVHGQYLGVAFRGL [D13H]	2.94

Variant	protein stability index
LDMDEGTLSFIVNGQYLGVAFRGL [D13N]	2.39
LDMDEGTLSFIVIGQYLGVAFRGL [D13I]	2.6
LDMDEGTLSFIVEGQYLGVAFRGL [D13E]	2.83
LDMDEGTLSFIVPGQYLGVAFRGL [D13P]	1.82
LDMDEGTLSFIVLGQYLGVAFRGL [D13L]	2.94
LDMDEGTLSFIVGGQYLGVAFRGL [D13G]	2.8
LDMDEGTLSFIVQGQYLGVAFRGL [D13Q]	2.77
LDMDEGTLSFIVFGQYLGVAFRGL [D13F]	3.41
LDMDEGTLSFIVWGQYLGVAFRGL [D13W]	2.55
LDMDEGTLSFIVSGQYLGVAFRGL [D13S]	2.61
LDMDEGTLSFIVKGQYLGVAFRGL [D13K]	2.61
LDMDEGTLSFIVTGQYLGVAFRGL [D13T]	3.32
LDMDEGTLSFIVDGQYLGVAVRGL [F21V]	2.46
LDMDEGTLSFIVDGQYLGVAARGL [F21A]	1.7
LDMDEGTLSFIVDGQYLGVAMRGL [F21M]	1.43
LDMDEGTLSFIVDGQYLGVAPRGL [F21P]	1.89
LDMDEGTLSFIVDGQYLGVARRGL [F21R]	1.65
LDMDEGTLSFIVDGQYLGVAYRGL [F21Y]	2.27
LDMDEGTLSFIVDGQYLGVAIRGL [F21I]	2.95
LDMDEGTLSFIVDGQYLGVAERGL [F21E]	1.96
LDMDEGTLSFIVDGQYLGVASRGL [F21S]	2.18
LDMDEGTLSFIVDGQYLGVADRGL [F21D]	2.31
LDMDEGTLSFIVDGQYLGVATRGL [F21T]	2.04
LDMDEGTLSFIVDGQYLGVAWRGL [F21W]	2.48

Variant	protein stability index
LDMDEGTLSFIVDGQYLGVAHRGL [F21H]	1.72
LDMDEGTLSFIVDGQYLGVAGRGL [F21G]	1.76
LDMDEGTLSFIVDGQYLGVAKRGL [F21K]	2.39
LDMDEGTLSFIVDGQYLGVANRGL [F21N]	1.98
LDMDEGTLSFIVDGQYLGVAQRGL [F21Q]	1.98
LDMDEGTLSFIVDGQYLGVALRGL [F21L]	1.8
LDMDEGTLSFIVDGQYLGVACRGL [F21C]	1.62
LDMDEGTLSFIVDGQYLGVIFRGL [A20I]	2.13
LDMDEGTLSFIVDGQYLGVYFRGL [A20Y]	2.4
LDMDEGTLSFIVDGQYLGVPFRGL [A20P]	1.55
LDMDEGTLSFIVDGQYLGVWFRGL [A20W]	2.61
LDMDEGTLSFIVDGQYLGVGFRGL [A20G]	2.38
LDMDEGTLSFIVDGQYLGVTFRGL [A20T]	2.03
LDMDEGTLSFIVDGQYLGVQFRGL [A20Q]	1.86
LDMDEGTLSFIVDGQYLGVNFRGL [A20N]	1.68
LDMDEGTLSFIVDGQYLGVDFRGL [A20D]	1.63
LDMDEGTLSFIVDGQYLGVVFRGL [A20V]	3.1
LDMDEGTLSFIVDGQYLGVCFRGL [A20C]	2.13
LDMDEGTLSFIVDGQYLGVRFRGL [A20R]	2.47
LDMDEGTLSFIVDGQYLGVKFRGL [A20K]	2.11
LDMDEGTLSFIVDGQYLGVMFRGL [A20M]	2.48
LDMDEGTLSFIVDGQYLGVEFRGL [A20E]	1.88
LDMDEGTLSFIVDGQYLGVHFRGL [A20H]	1.89
LDMDEGTLSFIVDGQYLGVSFRGL [A20S]	2

Variant	protein stability index
LDMDEGTLSFIVDGQYLGVLFRGL [A20L]	2.51
LDMDEGTLSFIVDDQYLGVAFRGL [G14D]	2.32
LDMDEGTLSFIVDQQYLGVAFRGL [G14Q]	1.5
LDMDEGTLSFIVDVQYLGVAFRGL [G14V]	1.95
LDMDEGTLSFIVDFQYLGVAFRGL [G14F]	2.69
LDMDEGTLSFIVDKQYLGVAFRGL [G14K]	2.44
LDMDEGTLSFIVDAQYLGVAFRGL [G14A]	2.58
LDMDEGTLSFIVDRQYLGVAFRGL [G14R]	2.65
LDMDEGTLSFIVDEQYLGVAFRGL [G14E]	1.91
LDMDEGTLSFIVDSQYLGVAFRGL [G14S]	2.17
LDMDEGTLSFIVDHQYLGVAFRGL [G14H]	3.15
LDMDEGTLSFIVDWQYLGVAFRGL [G14W]	2.71
LDMDEGTLSFIVDMQYLGVAFRGL [G14M]	2.88
LDMDEGTLSFIVDYQYLGVAFRGL [G14Y]	2.38
LDMDEGTLSFIVDPQYLGVAFRGL [G14P]	3.54
LDMDEGTLSFIVDIQYLGVAFRGL [G14I]	3.85
LDMDEGTLSFIVDLQYLGVAFRGL [G14L]	2.11
LDMDEGTLSFIVDNQYLGVAFRGL [G14N]	1.83
LDMDEGTLSFIVDTQYLGVAFRGL [G14T]	3.42
LDMDEGTLSFIVDGQYLGVAFNGL [R22N]	2.46
LDMDEGTLSFIVDGQYLGVAFFGL [R22F]	2.57
LDMDEGTLSFIVDGQYLGVAFMGL [R22M]	1.99
LDMDEGTLSFIVDGQYLGVAFQGL [R22Q]	2.1
LDMDEGTLSFIVDGQYLGVAFSGL [R22S]	2.46

Variant	protein stability index
LDMDEGTLSFIVDGQYLGVAFPGL [R22P]	2.25
LDMDEGTLSFIVDGQYLGVAFKGL [R22K]	2.01
LDMDEGTLSFIVDGQYLGVAFEGL [R22E]	2.05
LDMDEGTLSFIVDGQYLGVAFAGL [R22A]	3
LDMDEGTLSFIVDGQYLGVAFLGL [R22L]	1.81
LDMDEGTLSFIVDGQYLGVAFTGL [R22T]	4.1
LDMDEGTLSFIVDGQYLGVAFHGL [R22H]	3.23
LDMDEGTLSFIVDGQYLGVAFWGL [R22W]	1.31
LDMDEGTLSFIVDGQYLGVAFGGL [R22G]	2.69
LDMDEGTLSFIVDGQYLGVAFIGL [R22I]	2.24
LDMDEGTLSFIVDGQYLGVAFYGL [R22Y]	3.56
LDMDEGTLSFIVDGQYLGVAFCGL [R22C]	2.55
LDMDEGTLSFIVDGQYLGVAFDGL [R22D]	2.41
LDMDEGTLSFIVDGQYLGNAFRGL [V19N]	1.98
LDMDEGTLSFIVDGQYLGRAFRGL [V19R]	2.04
LDMDEGTLSFIVDGQYLGTAFRGL [V19T]	2.1
LDMDEGTLSFIVDGQYLGKAFRGL [V19K]	2.1
LDMDEGTLSFIVDGQYLGIAFRGL [V19I]	2.77
LDMDEGTLSFIVDGQYLGQAFRGL [V19Q]	1.94
LDMDEGTLSFIVDGQYLGSAFRGL [V19S]	1.66
LDMDEGTLSFIVDGQYLGDAFRGL [V19D]	1.99
LDMDEGTLSFIVDGQYLGCAFRGL [V19C]	2.33
LDMDEGTLSFIVDGQYLGLAFRGL [V19L]	1.94
LDMDEGTLSFIVDGQYLGFAFRGL [V19F]	2.31

Variant	protein stability index
LDMDEGTLSFIVDGQYLGGAFRGL [V19G]	2.18
LDMDEGTLSFIVDGQYLGYAFRGL [V19Y]	2.49
LDMDEGTLSFIVDGQYLGEAFRGL [V19E]	1.85
LDMDEGTLSFIVDGQYLGWAFRGL [V19W]	2.04
LDMDEGTLSFIVDGQYLGPAFRGL [V19P]	2.43
LDMDEGTLSFIVDGQYLGMAFRGL [V19M]	2.32
LDMDEGTLSFIVDGQYLGHAFRGL [V19H]	2.07
LDMDEGTLSFIVDGQYLGAAFRGL [V19A]	1.97
LDMDEGTLSFIWDGQYLGVAFRGL [V12W]	3.35
LDMDEGTLSFIYDGQYLGVAFRGL [V12Y]	2.36
LDMDEGTLSFITDGQYLGVAFRGL [V12T]	2.35
LDMDEGTLSFIVDGQTLGVAFRGL [Y16T]	2.34
LDMDEGTLSFIVDGQWLGVAFRGL [Y16W]	1.9
LDMDEGTLSFIVDGQCLGVAFRGL [Y16C]	2.12
LDMDEGTLSFIVDGQVLGVAFRGL [Y16V]	3.47
LDMDEGTLSFIVDGQNLGVAFRGL [Y16N]	1.59
LDMDEGTLSFIVDGQGLGVAFRGL [Y16G]	1.78
LDMDEGTLSFIVDGQHLGVAFRGL [Y16H]	2.37
LDMDEGTLSFIVDGQLLGVAFRGL [Y16L]	2.52
LDMDEGTLSFIVDGQKLGVAFRGL [Y16K]	1.93
LDMDEGTLSFIVDGQSLGVAFRGL [Y16S]	1.84
LDMDEGTLSFIVDGQFLGVAFRGL [Y16F]	3.17
LDMDEGTLSFIVDGQMLGVAFRGL [Y16M]	2.81
LDMDEGTLSFIVDGQELGVAFRGL [Y16E]	2.56

Variant	protein stability index
LDMDEGTLSFIVDGQDLGVAFRGL [Y16D]	1.55
LDMDEGTLSFIVDGQILGVAFRGL [Y16I]	3.04
LDMDEGTLSFIVDGQALGVAFRGL [Y16A]	1.57
LDMDEGTLSFIVDGQRLGVAFRGL [Y16R]	1.69
LDMDEGTLSFIVDGQPLGVAFRGL [Y16P]	2.27
LDMDEGTLSFIVDGQQLGVAFRGL [Y16Q]	1.26
LDMDEGTLSFIVDGDYLGVAFRGL [Q15D]	2.33
LDMDEGTLSFIVDGKYLGVAFRGL [Q15K]	2.5
LDMDEGTLSFIVDGLYLGVAFRGL [Q15L]	2.2
LDMDEGTLSFIVDGYYLGVAFRGL [Q15Y]	2.62
LDMDEGTLSFIVDGMYLGVAFRGL [Q15M]	1.98
LDMDEGTLSFIVDGFYLGVAFRGL [Q15F]	2.25
LDMDEGTLSFIVDGIYLGVAFRGL [Q15I]	2.02
LDMDEGTLSFIVDGAYLGVAFRGL [Q15A]	2.87
LDMDEGTLSFIVDGNYLGVAFRGL [Q15N]	3.31
LDMDEGTLSFIVDGVYLGVAFRGL [Q15V]	2.19
LDMDEGTLSFIVDGHYLGVAFRGL [Q15H]	3.32
LDMDEGTLSFIVDGSYLGVAFRGL [Q15S]	2.35
LDMDEGTLSFIVDGEYLGVAFRGL [Q15E]	1.39
LDMDEGTLSFIVDGTYLGVAFRGL [Q15T]	3.63
